The results in this text go back to article doi:10.1101/2023.06.11.543863.

Read-outs that look alike come from different tables or passages of the source.

Common to all, as to experiment: FRET or BRET
In general terms: BRET reads energy transfer from a luciferase to a nearby fluorophore.

In assay [1] the target is E. coli ribosomal pre-translocation complex lacking an A-site tRNA (PRE^−A complex) (E. coli) (UniProt P0A7L0).
The target is the same in assay [2]. The source holds these as a separate data set.
The target is the same in assay [3]. This is another data set of the same source.

The Kd is the concentration at which binding is half-saturated. A low value points to higher affinity.

Chain of UniProt P0A7L0 (P0A7L0 whole entry, looked up, one chain of several): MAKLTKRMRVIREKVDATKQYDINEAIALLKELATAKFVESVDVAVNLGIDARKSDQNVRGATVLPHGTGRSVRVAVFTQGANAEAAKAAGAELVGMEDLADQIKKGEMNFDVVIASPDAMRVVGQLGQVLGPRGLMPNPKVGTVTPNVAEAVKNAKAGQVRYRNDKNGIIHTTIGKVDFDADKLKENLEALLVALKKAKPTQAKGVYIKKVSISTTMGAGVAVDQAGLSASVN

For “EQ2-YheS (E. coli YheS with both catalytic glutamates changed to glutamine) (from UniProt P63389 1-637) (enzyme)”, the results for the Kd in assay [1] and in assay [2] were < 6 µM and < 1 µM, respectively.

As to “EQ2-Uup (E. coli Uup with both catalytic glutamates changed to glutamine) (from UniProt P43672 1-635) (enzyme)”, the Kd in assay [3] was 1 µM; in assay [1], < 6 µM. Take “EQ2-EttA (E. coli EttA with both catalytic glutamates changed to glutamine) (from UniProt P0A9W3 1-555) (enzyme)”: the Kd in assay [1] was < 6 µM.

On to “EQ2-YbiT (E. coli YbiT with both catalytic glutamates changed to glutamine) (from UniProt P0A9U3 1-530) (enzyme)”, for which the Kd in assay [1] is < 6 µM.
